Measurements reported in patent US20240261423A1.

Target: Insulin
Assay: low stringency direct binding ELISA on coated insulin, antibody dilutions from 10 µg/mL

Sequence of Insulin (P01308 25-54, chain 1 of 2): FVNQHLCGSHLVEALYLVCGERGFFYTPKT
Sequence of Insulin (P01308 90-110, chain 2 of 2): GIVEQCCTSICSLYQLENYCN

| Substance | Polyreactivity Score |
| --- | --- |
| Negative Control (polyreactivity assay) (antibody) | 5.03 |
| Positive Control (polyreactivity assay) (antibody) | 12.2 |
